According to the nanobody polyreactivity screen of Harvey et al. (2022):

experiment: yeast display, Sf9 membrane polyspecificity reagent, FACS + sequencing; frameworks hold sequencing errors
Procedure, shortened: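 Genes from sorted yeast were amplified by colony PCR, read by MiSeq 2 × 250 sequencing and filtered on CDR length. These cells carried a synthetic nanobody library in Saccharomyces cerevisiae BJ5465 and were sorted by FACS into low and high (top ~1%) gates on anti-HA and streptavidin fluorescence. Polyreactivity is labelled according to the gate of origin.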

Row | Sequence | polyreactivity (PSR sort gate)
1 | QLQLVESGGGLVQAGGSLRLICAASGRIFATYAMGWYRQAPGKEREFVAAITKGGVRTYYADSVKGRFTISRDNAKNTVYLQMNSLKPEDTAVYYCAADAWVRGRYPYGYDYWGQGTQVTVSS | low polyreactivity
2 | QVQLVESGGGLVQAGGSLRLSCAASGLIFYVYARGWYRQAPGKERELVAAIRYRGGTTHYADSVKGRFTISRDNAKNTVYLQMNSLKPEDTAVYYCAADGYVYRSGRRYDYWGQGTQVTVSS | high polyreactivity
3 | QVQFVESGGGLVQARCSLRLSCAASGFIFGVYAMGWYRQAPGKERELVAAINSGGGSTYYADSVKGRFTISRDNAKNTVYLQMNSLKPEDTAVYYCAVRYKSWYGFNYWGQGTQVTVSS | high polyreactivity
4 | QVQLVESGGGLVQAGGSHRLSCAASGSTLTWYAMGWYRQAPWKEWELVDTISSSTGSTRYADSVKGRFTISRDNAKNSVYLRINSLKPDDTAVYYCAKAYALRYARGRARYDYDFWGQGTQVNVSS | low polyreactivity
5 | QVQIVESGGGLVQAGGSLRLSCAASGRTFRYYTMGWYIQAPGKERELVAVISRSGGSTYYADSVKGRFTISRDNAKNTVYLQMNSLKPEDTAVYYCNAGYWRFIDSYDYWGPGTQVTVSS | high polyreactivity
6 | QVQLVESGGGLVQAGGSLRLSCAASGSIFVVYSMGWYRQAPGKERELVAGISYGDNTNYADSVKGRFTISRDNAKNTVYLQMNSLKPVDTAVYYCNADGTSRNLEGFDYWGQGTQVTVSS | low polyreactivity
7 | QVQLVESGGGLVQAGGSLRLSCAASGRIFGGYTMGWYRQAPGKEREFVATISRSSGSTYYADSVKGRFTISRDNAKNTVYLQMNSLKPEDTAVYYCAAVYLYATGYDYWGQGTQVTVSS | high polyreactivity
8 | QVQVVESGGGLVQAGGSLRLSCAASGSTFWWYAMGWYRQAPGKERELVAAITSGGSTNYADSVKGRFTISRDNAKNTVYLQMNSLKPEVTAFYYCAKVPRPLVYYIRLGYWGQGTQVTVSS | high polyreactivity
9 | QVQLVESGGGLVQAGGSLRLSCAASGRTFRYNAMGWYRQAPGKERELVAAITYSGGTTYADSVKGRFTISRDNAKNTVYLQMNSLKPEDTAGYYCAARGYVWNIGRYYWGQGTQVTVSS | high polyreactivity
10 | QVQRVESGGGLVQAGGSLRLSCAASGSTFYAYAMGWYRQSPGKERELVATITWSGGSTFYADSVKGRFTISRDNAKNTVYLQMNSLKPEDTAVYYCAARSRFPTIADGDYWGQGTQVTVSS | low polyreactivity
11 | QVQLVESGGGLVQAGGSLRLTCAASGNTFYQYAMGWYRQATGKERELVAAISSSGGSTYYADSVKGRFTISRDNAKNTVYLQMNSLKPEDTAVYYCATDKWYGYYYWGQGTQVTVSS | low polyreactivity
12 | QVQLVESGGGLVQAGGSLRLSCAASGITFAYYAMGWYRQAPGKERELVAAIRGGTNTYYADSVKGRFTISRDNAKYTVYLQMNSLKPEDTGVYYCAVRLYLEMDYWGQGTQVTVSS | high polyreactivity
13 | QVQLVESGGGLVQAGGSLRLSCAASGSIFYVYAMGWYRQAPGKERELVAAISWRGGSTYYADSVKGRFTISRDIAKITVYLQMNSLKPEDTAVYYCNADWSFWGQGTQVTVSS | high polyreactivity
14 | QVQLVESGGGLVQAGGSLRLSCAASGSIFASNTMGWYRQAPGKERELVAGITKIGSSTYYADSVKGRFTISRDNAKNTVYLQMNSLKPEDTAVYYCAAGAWRGPYSGYYYWGQGTQVTVST | low polyreactivity
15 | QDQLVESGGGLVQAGGSLRLSCAASGTIFRGYTMGWYRQAPGKERELVAAISSSGGRTHYADSVKGRFTISRDNAKNTVYLQMNSLKPEDSAVYYCAADYYRTPKSGSSGLDYWGQGTQVTLSS | low polyreactivity
16 | QVQLVESGGGLVQAGGSLRLSCAASGRIFEHYAMGWYRQAPGKERELVAAITVSGGSTYYADSVKGRFTISRDNAKNTVYLQMNSLKPEDTAVYYCNADQRDYGSYVTKLDYWGQGTQVTVSS | low polyreactivity
17 | QVQLVESGGGLVQAGGSLRLSCAASGRTFYRYAMGWYRQAPGKESELVAAISSSGGSTYYADSVKGRFTISRDNAKNTVYFQMNSLKPEDTAVYDCADQYFLFTTPYRYAPRMGYWGQGTQVTLSS | high polyreactivity
